Assay results taken from patent publication EP3515493A1 (dated 2019).

Assays:
HLA-DR, human [1] = target: HLA-DR, human (human); assay: Scatchard plot analysis, avidity constant on tumor cell line (ARH-77 myeloma cells)
HLA-DR, human [2] = target: HLA-DR, human (human); assay: Scatchard analysis, normal B cells (Table 11: tonsil lymphocytes) compared with ARH-77 tumor cells
HLA-DR, human [3] = target: HLA-DR, human (human); assay: Scatchard plot analysis, avidity constant on tonsil lymphocytes
HLA-DR, human [4] = target: HLA-DR, human (human); assay: Scatchard plot analysis, avidity constant on tumor cell line (Raji cells)
HLA-DR, human [5] = target: HLA-DR, human (human); assay: Scatchard analysis, normal B cells (Table 11: tonsil lymphocytes) compared with Raji tumor cells

B1: Lym-2 (antibody, V domains shown)
VH: EVQLEESGGGLVQPGGSMKLSCVASGFTFSNYWMNWVRQSPEKGLEWVAEIRFKSHNYATHFAESVKGRFTISRDDSKSSVYLQMNNLRAEDTGIYYCTRRIGNSDYDWWYFDVWGAGTSVTVSS
VL: DIVMTQSHKFMSTSVGDRVSVTCKASQNVGNNVAWYQQKPGQSPKVLIYSASYRYSGVPDRFTGSGSGTDFTLTISNVQSEDLAEYFCQQYNTYPFTFGSGTKLEIK
- Ka (HLA-DR, human [1]): 2.33e+08 M⁻¹
- fold decrease in binding affinity (normal B cells against tumor cells) (HLA-DR, human [2]): 2 fold
- Ka (HLA-DR, human [3]): 1.23e+08 M⁻¹

B2: Lym-1 (antibody, V domains shown)
VH: QLKESGPGLVAPSQSLSITCTISGFSLTSYGVHWVRQPPGKGLEWLVVIWSDGSTTYNSALKSRLSISKDNSKSQVFLKMNSLQTDDTAIYYCASHYGSTLAFASWGHGTLVTVSA
VL: DIQMTQSPASLSASVGETVTIICRASVNIYSYLAWYQQKQGKSPQLLVYNAKILAEGVPSRFSGSGSGTQFSLKINSLQPEDFGSYYCQHHYGTFTFGSGTKLEIK
- Ka (HLA-DR, human [4]): 4.02e+08 M⁻¹
- Ka (HLA-DR, human [3]): 8.8e+07 M⁻¹
- fold decrease in binding affinity (normal B cells against tumor cells) (HLA-DR, human [5]): 4 fold
